We go through 19 molecules from patent US20240132593A1 (KINETA, published 2024).

The target of assay [1] is Antibody No. 245.1. Put plainly: peptide blocking ELISA on plate-bound VISTA, peptide 20 ug/mL. A general note: ELISA stands for enzyme-linked immunosorbent assay.
The target in assay [2] is VSTB174. The description is as above.
Assay [3] addresses T1, Antibody No. 465.1.
T1 construct: also called Ab No. 465.1
Described as above.

The target in assay [4] is Antibody No. 245.1. Put plainly: peptide blocking ELISA on plate-bound VISTA, peptide 2 ug/mL.
Assay [5] has as its target VSTB174. Described as above.
Assay [6] concerns the target T1, Antibody No. 465.1. The description is as above.
Assay [7] addresses T2, VISTA-His ECD (Sino Biological 13482-H08H) (human, UniProt Q9H7M9 33-194).
T2 construct: Bought protein; also called VISTA-ECD; not shown: His tag
The experiment in a line: BLI (Octet K2), ratio of the pH 6.0 fold change to the pH 7.4 fold change. (In general: BLI is a label-free optical method that tracks binding on a fibre tip over time.)

Assay [8] deals with T2, VISTA-His ECD (Sino Biological …). Put plainly: BLI (Octet K2), ratio of off-rates at pH 7.4 to control Ab No. 245.1.

Chain of VSTB174 (VH, as listed by the source, chain 1 of 2): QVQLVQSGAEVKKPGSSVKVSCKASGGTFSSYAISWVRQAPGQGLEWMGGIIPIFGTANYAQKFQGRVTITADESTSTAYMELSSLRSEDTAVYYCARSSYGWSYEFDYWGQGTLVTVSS
Chain of VSTB174 (VL, as listed by the source, chain 2 of 2): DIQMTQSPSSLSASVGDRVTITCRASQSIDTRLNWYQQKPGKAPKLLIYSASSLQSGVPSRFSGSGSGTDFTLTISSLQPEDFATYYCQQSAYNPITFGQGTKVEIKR

B1: Spiked Peptide 25 (HHHSEHRVHGAMELQ) (peptide)
peptide: HHHSEHRVHGAMELQ
notes: synthetic overlapping peptide from human VISTA
With B1, the “percent reduction in ELISA signal” value was found to be 52% with Antibody No. 245.1 [1]; 83% with VSTB174 [2]; 67% with Antibody No. 465.1 [3]; 10% with Antibody No. 245.1 [4]; 45% with VSTB174 [5]; 10% with Antibody No. 465.1 [6].

B2: Spiked Peptide 24 (VVEIRHHHSEHRVHG) (peptide)
peptide: VVEIRHHHSEHRVHG
notes: as for B1
Take B2: the “percent reduction in ELISA signal” value in the assay with Antibody No. 245.1 [1] was 41%; in the assay with VSTB174 [2], 82%; with Antibody No. 465.1 [3] it was 43%; with Antibody No. 245.1 [4] it was 8%; with VSTB174 [5], 48%; with Antibody No. 465.1 [6] it was 16%.

B3: Spiked Peptide 30 (CVVYPSSSQESENIT) (peptide)
peptide: CVVYPSSSQESENIT
notes: as for B1
B3: the “percent reduction in ELISA signal” value with Antibody No. 245.1 [1] turned out to be 0%; with VSTB174 [2] it was 21%; in the assay with Antibody No. 465.1 [3], 0%; with Antibody No. 245.1 [4], 0%; in the assay with VSTB174 [5], 12%; with Antibody No. 465.1 [6] it was 0%.

B4: Spiked Peptide 29 (DAPSNCVVYPSSSQE) (peptide)
peptide: DAPSNCVVYPSSSQE
notes: as for B1
With B4, the “percent reduction in ELISA signal” value was found to be 0% with Antibody No. 245.1 [1]; 10% with VSTB174 [2]; 14% in the assay with Antibody No. 465.1 [3]; 0% in the assay with Antibody No. 245.1 [4]; 8% with VSTB174 [5]; 0% in the assay with Antibody No. 465.1 [6].

B5: Spiked Peptide 28 (VQTGKDAPSNCVVYP) (peptide)
peptide: VQTGKDAPSNCVVYP
notes: as for B1
On to B5, for which the “percent reduction in ELISA signal” value with Antibody No. 245.1 [1] was determined as 5%; with VSTB174 [2] it was 5%; in the assay with Antibody No. 465.1 [3], 0%; in the assay with Antibody No. 245.1 [4] it was 0%; with VSTB174 [5], 0%; with Antibody No. 465.1 [6], 0%.

B6: Antibody No. 474.1 with VH Y32H, VH Y52H (antibody, V domains shown)
VH: QVQLQESGPGLVKPSETLSLTCTVSGGSISSHYWSWIRQPPGKGLEWIGYIHYSGSTNYNPSLKSRVTISVDTSKSQFSLKLSSVTAADTAVYYCARDIPAFAFDIWGQGTMVIVSS
VL: EIVLTQSPATLSLSPGERATLSCRASQSVSYYLAWYQQKPGQAPRLLIYDAFNRATGIPARFSGSGSGTDFTLTISSLEPEDFAVYYCQQRINWPLTFGGGTKVEIK
As to B6, in assay [7], the “ΔKdis (pH 6.0)/ΔKdis (pH 7.4)” value worked out at 3.4. Moreover, the “Kdis (pH 7.4) ÷ Kdis, Ab No. 245.1 (pH 7.4)” value (“Kdis … Ab No. 245.1 (pH 7.4)” below) in assay [8] turned out to be 5 s⁻¹.

B7: Antibody No. 474.1 with VL Y32H, VH Y32H, VH Y33H (antibody, V domains shown)
VH: QVQLQESGPGLVKPSETLSLTCTVSGGSISSHHWSWIRQPPGKGLEWIGYIYYSGSTNYNPSLKSRVTISVDTSKSQFSLKLSSVTAADTAVYYCARDIPAFAFDIWGQGTMVIVSS
VL: EIVLTQSPATLSLSPGERATLSCRASQSVSYHLAWYQQKPGQAPRLLIYDAFNRATGIPARFSGSGSGTDFTLTISSLEPEDFAVYYCQQRINWPLTFGGGTKVEIK
Regarding B7, the “ΔKdis (pH 6.0)/ΔKdis (pH 7.4)” value in assay [7] was 2.4. For the same molecule, the “Kdis … Ab No. 245.1 (pH 7.4)” value in assay [8] was found to be 56 s⁻¹.

B8: Antibody No. 474.1 with VL Y32H, VH Y32H, VH Y52H (antibody, V domains shown)
VH: QVQLQESGPGLVKPSETLSLTCTVSGGSISSHYWSWIRQPPGKGLEWIGYIHYSGSTNYNPSLKSRVTISVDTSKSQFSLKLSSVTAADTAVYYCARDIPAFAFDIWGQGTMVIVSS
VL: EIVLTQSPATLSLSPGERATLSCRASQSVSYHLAWYQQKPGQAPRLLIYDAFNRATGIPARFSGSGSGTDFTLTISSLEPEDFAVYYCQQRINWPLTFGGGTKVEIK
For B8, in assay [7], the “ΔKdis (pH 6.0)/ΔKdis (pH 7.4)” value worked out at 1.8. In addition, the “Kdis … Ab No. 245.1 (pH 7.4)” value in assay [8] was 71 s⁻¹.

B9: Antibody No. 474.1 with VL Y31H, VH Y52H (second of two rows so labelled, the 40th table r13) (antibody, human IgG1, V domains shown)
VH: QVQLQESGPGLVKPSETLSLTCTVSGGSISSYYWSWIRQPPGKGLEWIGYIHYSGSTNYNPSLKSRVTISVDTSKSQFSLKLSSVTAADTAVYYCARDIPAFAFDIWGQGTMVIVSS
VL: EIVLTQSPATLSLSPGERATLSCRASQSVSHYLAWYQQKPGQAPRLLIYDAFNRATGIPARFSGSGSGTDFTLTISSLEPEDFAVYYCQQRINWPLTFGGGTKVEIK
Regarding B9, the “ΔKdis (pH 6.0)/ΔKdis (pH 7.4)” value in assay [7] worked out at 3.8. Moreover, the “Kdis … Ab No. 245.1 (pH 7.4)” value in assay [8] is 37 s⁻¹.

B10: Antibody No. 474.1 with VH Y32H, VH Y33H, VH Y52H (antibody, V domains shown)
VH: QVQLQESGPGLVKPSETLSLTCTVSGGSISSHHWSWIRQPPGKGLEWIGYIHYSGSTNYNPSLKSRVTISVDTSKSQFSLKLSSVTAADTAVYYCARDIPAFAFDIWGQGTMVIVSS
VL: EIVLTQSPATLSLSPGERATLSCRASQSVSYYLAWYQQKPGQAPRLLIYDAFNRATGIPARFSGSGSGTDFTLTISSLEPEDFAVYYCQQRINWPLTFGGGTKVEIK
In the case of B10, the “ΔKdis (pH 6.0)/ΔKdis (pH 7.4)” value in assay [7] worked out at 5.2. Also, the “Kdis … Ab No. 245.1 (pH 7.4)” value in assay [8] stood at 14 s⁻¹.

B11: Antibody No. 474.1 with VH Y32H, VH Y33H (antibody, V domains shown)
VH: QVQLQESGPGLVKPSETLSLTCTVSGGSISSHHWSWIRQPPGKGLEWIGYIYYSGSTNYNPSLKSRVTISVDTSKSQFSLKLSSVTAADTAVYYCARDIPAFAFDIWGQGTMVIVSS
VL: EIVLTQSPATLSLSPGERATLSCRASQSVSYYLAWYQQKPGQAPRLLIYDAFNRATGIPARFSGSGSGTDFTLTISSLEPEDFAVYYCQQRINWPLTFGGGTKVEIK
As to B11, the “ΔKdis (pH 6.0)/ΔKdis (pH 7.4)” value in assay [7] came to 6.9. Moreover, in assay [8], the “Kdis … Ab No. 245.1 (pH 7.4)” value was 4 s⁻¹.

B12: Antibody No. 474.1 with VL Y32H, VH Y33H (antibody, V domains shown)
VH: QVQLQESGPGLVKPSETLSLTCTVSGGSISSYHWSWIRQPPGKGLEWIGYIYYSGSTNYNPSLKSRVTISVDTSKSQFSLKLSSVTAADTAVYYCARDIPAFAFDIWGQGTMVIVSS
VL: EIVLTQSPATLSLSPGERATLSCRASQSVSYHLAWYQQKPGQAPRLLIYDAFNRATGIPARFSGSGSGTDFTLTISSLEPEDFAVYYCQQRINWPLTFGGGTKVEIK
B12: the “ΔKdis (pH 6.0)/ΔKdis (pH 7.4)” value in assay [7] worked out at 2.7. For the same molecule, in assay [8], the “Kdis … Ab No. 245.1 (pH 7.4)” value is 52 s⁻¹.

B13: Antibody No. 474.1 with VL Y31H, VH Y32H, VH Y33H (antibody, V domains shown)
VH: QVQLQESGPGLVKPSETLSLTCTVSGGSISSHHWSWIRQPPGKGLEWIGYIYYSGSTNYNPSLKSRVTISVDTSKSQFSLKLSSVTAADTAVYYCARDIPAFAFDIWGQGTMVIVSS
VL: EIVLTQSPATLSLSPGERATLSCRASQSVSHYLAWYQQKPGQAPRLLIYDAFNRATGIPARFSGSGSGTDFTLTISSLEPEDFAVYYCQQRINWPLTFGGGTKVEIK
Consider B13, for which the “ΔKdis (pH 6.0)/ΔKdis (pH 7.4)” value in assay [7] came to 1.5. The “Kdis … Ab No. 245.1 (pH 7.4)” value in assay [8] was determined as 68 s⁻¹.

B14: Antibody No. 474.1 with VL Y31H, VH Y32H (antibody, V domains shown)
VH: QVQLQESGPGLVKPSETLSLTCTVSGGSISSHYWSWIRQPPGKGLEWIGYIYYSGSTNYNPSLKSRVTISVDTSKSQFSLKLSSVTAADTAVYYCARDIPAFAFDIWGQGTMVIVSS
VL: EIVLTQSPATLSLSPGERATLSCRASQSVSHYLAWYQQKPGQAPRLLIYDAFNRATGIPARFSGSGSGTDFTLTISSLEPEDFAVYYCQQRINWPLTFGGGTKVEIK
With B14, the “ΔKdis (pH 6.0)/ΔKdis (pH 7.4)” value in assay [7] was 5.8. Besides, the “Kdis … Ab No. 245.1 (pH 7.4)” value in assay [8] amounted to 12 s⁻¹.

B15: Antibody No. 474.1 with VL Y31H, VH Y32H, VH Y52H (antibody, V domains shown)
VH: QVQLQESGPGLVKPSETLSLTCTVSGGSISSHYWSWIRQPPGKGLEWIGYIHYSGSTNYNPSLKSRVTISVDTSKSQFSLKLSSVTAADTAVYYCARDIPAFAFDIWGQGTMVIVSS
VL: EIVLTQSPATLSLSPGERATLSCRASQSVSHYLAWYQQKPGQAPRLLIYDAFNRATGIPARFSGSGSGTDFTLTISSLEPEDFAVYYCQQRINWPLTFGGGTKVEIK
B15: the “ΔKdis (pH 6.0)/ΔKdis (pH 7.4)” value in assay [7] worked out at 2. Besides, the “Kdis … Ab No. 245.1 (pH 7.4)” value in assay [8] stood at 61 s⁻¹.

B16: Antibody No. 474.1 with VL Y32H, VH Y32H (antibody, V domains shown)
VH: QVQLQESGPGLVKPSETLSLTCTVSGGSISSHYWSWIRQPPGKGLEWIGYIYYSGSTNYNPSLKSRVTISVDTSKSQFSLKLSSVTAADTAVYYCARDIPAFAFDIWGQGTMVIVSS
VL: EIVLTQSPATLSLSPGERATLSCRASQSVSYHLAWYQQKPGQAPRLLIYDAFNRATGIPARFSGSGSGTDFTLTISSLEPEDFAVYYCQQRINWPLTFGGGTKVEIK
With B16, the “ΔKdis (pH 6.0)/ΔKdis (pH 7.4)” value in assay [7] stood at 5.9. In assay [8], the “Kdis … Ab No. 245.1 (pH 7.4)” value was 15 s⁻¹.

B17: Spiked Peptide 26 (HRVHGAMELQVQTGK) (peptide)
peptide: HRVHGAMELQVQTGK
notes: as for B1
For the molecule B17, the “percent reduction in ELISA signal” value with Antibody No. 245.1 [1] worked out at 0%; with VSTB174 [2], 25%; with Antibody No. 465.1 [3], 2%; with Antibody No. 245.1 [4] it was 0%; with VSTB174 [5] it was 17%; in the assay with Antibody No. 465.1 [6], 0%.

B18: Spiked Peptide 31 (SSSQESENITAA) (peptide)
peptide: SSSQESENITAA
notes: as for B1
For B18, the “percent reduction in ELISA signal” value came to 8% in the assay with Antibody No. 245.1 [1]; 27% with VSTB174 [2]; 5% in the assay with Antibody No. 465.1 [3]; 0% in the assay with Antibody No. 245.1 [4]; 15% with VSTB174 [5]; 0% with Antibody No. 465.1 [6].

B19: Spiked Peptide 27 (AMELQVQTGKDAPSN) (peptide)
peptide: AMELQVQTGKDAPSN
notes: as for B1
Turning to B19, the “percent reduction in ELISA signal” value with Antibody No. 245.1 [1] is 0%; in the assay with VSTB174 [2], 24%; with Antibody No. 465.1 [3] it was 3%; with Antibody No. 245.1 [4], 0%; in the assay with VSTB174 [5] it was 13%; with Antibody No. 465.1 [6] it was 0%.
